Drawing on PMC4434323, this text covers binding signal (PBM E-score (-0.5 to 0.5)) for 45 sequences.

Data set [1] deals with T1, ceh-26 (K12H4.1) (Caenorhabditis elegans) (UniProt P34522).
T1 sequence: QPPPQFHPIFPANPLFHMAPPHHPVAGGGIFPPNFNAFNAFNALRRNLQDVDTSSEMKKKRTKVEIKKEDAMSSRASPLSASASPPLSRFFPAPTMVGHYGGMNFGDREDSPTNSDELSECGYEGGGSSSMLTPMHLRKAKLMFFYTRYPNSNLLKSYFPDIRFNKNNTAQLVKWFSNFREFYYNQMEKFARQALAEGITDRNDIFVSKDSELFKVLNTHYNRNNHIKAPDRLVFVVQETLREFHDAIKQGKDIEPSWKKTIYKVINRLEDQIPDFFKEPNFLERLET

In data set [2] the target is sptf-3 (Y40B1A.4) (Caenorhabditis elegans) (UniProt Q9XW26).
Data set [3] concerns the target T2, Y61A9LA.9 (Y61A9LA.9) (Caenorhabditis elegans) (UniProt Q9N312).
T2 sequence: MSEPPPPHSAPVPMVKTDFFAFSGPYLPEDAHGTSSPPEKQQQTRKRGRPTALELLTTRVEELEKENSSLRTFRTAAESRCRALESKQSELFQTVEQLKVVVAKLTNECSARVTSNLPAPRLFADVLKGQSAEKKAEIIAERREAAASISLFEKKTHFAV

Data set [4] deals with T3, die-1 (C18D1.1) (Caenorhabditis elegans) (UniProt A0A131MCR4).
T3 sequence: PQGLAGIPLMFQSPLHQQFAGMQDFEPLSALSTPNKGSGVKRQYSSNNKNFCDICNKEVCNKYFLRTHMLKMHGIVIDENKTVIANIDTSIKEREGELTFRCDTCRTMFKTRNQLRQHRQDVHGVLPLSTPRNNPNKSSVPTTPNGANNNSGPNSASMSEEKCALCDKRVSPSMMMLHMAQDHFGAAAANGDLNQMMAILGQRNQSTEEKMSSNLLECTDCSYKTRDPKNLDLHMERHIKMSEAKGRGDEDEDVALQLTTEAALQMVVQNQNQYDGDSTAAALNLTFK

Data set [5] deals with T4, ceh-51 (Y80D3A.3) (Caenorhabditis elegans) (UniProt Q9U1R1).
T4 sequence: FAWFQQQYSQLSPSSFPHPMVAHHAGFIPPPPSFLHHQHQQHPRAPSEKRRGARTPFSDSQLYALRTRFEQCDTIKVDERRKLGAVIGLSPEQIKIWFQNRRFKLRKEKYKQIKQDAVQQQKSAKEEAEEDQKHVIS

The target of data set [6] is T5, pax-2 (K06B9.5) (Caenorhabditis elegans) (UniProt Q21263).
T5 sequence: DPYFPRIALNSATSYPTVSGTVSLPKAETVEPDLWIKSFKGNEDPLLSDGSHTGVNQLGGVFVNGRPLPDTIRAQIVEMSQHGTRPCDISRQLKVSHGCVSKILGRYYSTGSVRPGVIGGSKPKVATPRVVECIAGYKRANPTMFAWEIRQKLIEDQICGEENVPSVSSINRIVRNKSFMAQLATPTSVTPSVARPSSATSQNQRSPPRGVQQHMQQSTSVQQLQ

The target of data set [7] is T6, ceh-52 (C07E3.5) (Caenorhabditis elegans) (UniProt Q17788).
T6 sequence: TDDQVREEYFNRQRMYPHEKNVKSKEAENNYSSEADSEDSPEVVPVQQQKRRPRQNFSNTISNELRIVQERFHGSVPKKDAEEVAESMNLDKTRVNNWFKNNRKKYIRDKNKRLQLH

The target in data set [8] is T7, tbx-38 (C24H11.3) (Caenorhabditis elegans) (UniProt Q9XVD5).
T7 sequence: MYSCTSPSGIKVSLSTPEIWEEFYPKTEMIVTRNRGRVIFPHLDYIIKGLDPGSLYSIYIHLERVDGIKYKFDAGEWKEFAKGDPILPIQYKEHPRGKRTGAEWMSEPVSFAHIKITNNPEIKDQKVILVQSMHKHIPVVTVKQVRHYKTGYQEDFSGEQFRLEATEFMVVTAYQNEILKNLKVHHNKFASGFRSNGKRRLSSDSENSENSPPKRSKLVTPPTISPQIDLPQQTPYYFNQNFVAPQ

Data set [9] concerns the target T8, tbx-43 (Y46E12A.4) (Caenorhabditis elegans) (UniProt Q1T6W8).
T8 sequence: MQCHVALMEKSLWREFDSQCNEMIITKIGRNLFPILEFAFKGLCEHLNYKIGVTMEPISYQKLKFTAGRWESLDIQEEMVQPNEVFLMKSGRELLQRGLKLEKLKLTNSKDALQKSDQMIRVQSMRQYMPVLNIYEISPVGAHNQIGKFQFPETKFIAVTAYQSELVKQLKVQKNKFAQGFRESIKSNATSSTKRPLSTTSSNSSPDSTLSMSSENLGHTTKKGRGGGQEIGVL

Data set [10] deals with T9, dmd-6 (F13G11.1) (Caenorhabditis elegans) (UniProt O62159).
T9 sequence: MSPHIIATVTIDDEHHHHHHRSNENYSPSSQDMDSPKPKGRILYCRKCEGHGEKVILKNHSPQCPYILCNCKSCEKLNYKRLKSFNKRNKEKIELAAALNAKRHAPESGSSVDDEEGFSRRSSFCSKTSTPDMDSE

The target in data set [11] is T10, ceh-23 (ZK652.5) (Caenorhabditis elegans) (UniProt P34663).
T10 sequence: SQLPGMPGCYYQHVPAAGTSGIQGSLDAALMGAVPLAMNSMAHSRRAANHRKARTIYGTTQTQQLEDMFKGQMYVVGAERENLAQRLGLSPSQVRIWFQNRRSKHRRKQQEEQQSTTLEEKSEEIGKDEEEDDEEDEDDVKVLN

Data set [12] has as its target T11, eyg-1 (Y53C12C.1) (Caenorhabditis elegans) (UniProt O01996).
T11 sequence: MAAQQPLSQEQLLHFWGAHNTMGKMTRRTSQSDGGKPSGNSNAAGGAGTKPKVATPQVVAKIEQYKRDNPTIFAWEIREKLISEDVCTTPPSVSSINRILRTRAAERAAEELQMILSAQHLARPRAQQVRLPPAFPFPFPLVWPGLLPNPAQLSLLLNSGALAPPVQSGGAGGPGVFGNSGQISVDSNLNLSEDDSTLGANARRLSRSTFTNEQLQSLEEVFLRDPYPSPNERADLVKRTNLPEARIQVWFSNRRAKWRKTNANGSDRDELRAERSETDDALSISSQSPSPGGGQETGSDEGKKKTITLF

Sequence of sptf-3 (Y40B1A.4) (Caenorhabditis elegans) (Q9XW26 266-412): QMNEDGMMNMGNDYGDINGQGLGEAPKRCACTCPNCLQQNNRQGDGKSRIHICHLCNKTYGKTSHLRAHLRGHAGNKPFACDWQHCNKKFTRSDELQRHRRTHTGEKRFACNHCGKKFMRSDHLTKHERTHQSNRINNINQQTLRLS

“CGAAGAAA (double strand) [8-mer CGAAGAAA]”: the binding signal (PBM E-score (-0.5 to 0.5)) in [1] stood at 0.453.

“TCTTAAGA (double strand) [8-mer TCTTAAGA]” came in with a binding signal (PBM E-score (-0.5 to 0.5)) in [1] of 0.482.

As for “AAGATCTT (double strand) [8-mer AAGATCTT]”, the binding signal (PBM E-score (-0.5 to 0.5)) in [1] came to 0.457.

For the sequence “ACGCCCCT (double strand) [8-mer ACGCCCCT]”, the binding signal (PBM E-score (-0.5 to 0.5)) in data set [2] was 0.452. “TGAAGAAA (double strand) [8-mer TGAAGAAA]” showed a binding signal (PBM E-score (-0.5 to 0.5)) in data set [1] of 0.453. For the sequence “AATATATT (double strand) [8-mer AATATATT]”, the binding signal (PBM E-score (-0.5 to 0.5)) in [3] stood at 0.465. In the case of “AGGGGCGG (double strand) [8-mer AGGGGCGG]”, the binding signal (PBM E-score (-0.5 to 0.5)) in [2] came to 0.494. With “TCAAGAAA (double strand) [8-mer TCAAGAAA]”, the binding signal (PBM E-score (-0.5 to 0.5)) in data set [1] turned out to be 0.462. As for “ATTTAAAT (double strand) [8-mer ATTTAAAT]”, the binding signal (PBM E-score (-0.5 to 0.5)) in data set [3] was determined as 0.47; in data set [4], 0.477. Consider “ATATTAAT (double strand) [8-mer ATATTAAT]”, for which the binding signal (PBM E-score (-0.5 to 0.5)) in data set [3] worked out at 0.453; in [5], 0.467. “CTCCGCCC (double strand) [8-mer CTCCGCCC]”: the binding signal (PBM E-score (-0.5 to 0.5)) in data set [2] was 0.451.

In turn, “AAATAAAT (double strand) [8-mer AAATAAAT]” had a binding signal (PBM E-score (-0.5 to 0.5)) in data set [3] of 0.452. “AGCGTGAC (double strand) [8-mer AGCGTGAC]”: the binding signal (PBM E-score (-0.5 to 0.5)) in data set [6] turned out to be 0.488. The sequence “CGTGACCA (double strand) [8-mer CGTGACCA]” had a binding signal (PBM E-score (-0.5 to 0.5)) in [6] of 0.479.

In data set [6], “CCGTGACC (double strand) [8-mer CCGTGACC]” returned a binding signal (PBM E-score (-0.5 to 0.5)) of 0.484.

“AACATCTT (double strand) [8-mer AACATCTT]”: the binding signal (PBM E-score (-0.5 to 0.5)) in data set [1] amounted to 0.457. In turn, “ACCGTGAC (double strand) [8-mer ACCGTGAC]” registered a binding signal (PBM E-score (-0.5 to 0.5)) in [6] of 0.495. Consider “AAATAATT (double strand) [8-mer AAATAATT]”, for which, in data set [3], the binding signal (PBM E-score (-0.5 to 0.5)) stood at 0.457. Regarding “CCAAGAAA (double strand) [8-mer CCAAGAAA]”, the binding signal (PBM E-score (-0.5 to 0.5)) in data set [1] was determined as 0.472. Regarding “ATGGGCGG (double strand) [8-mer ATGGGCGG]”, the binding signal (PBM E-score (-0.5 to 0.5)) in [2] amounted to 0.456. Sequence “TAAAATAA (double strand) [8-mer TAAAATAA]” displayed a binding signal (PBM E-score (-0.5 to 0.5)) in data set [3] of 0.453.

“GCGTGACC (double strand) [8-mer GCGTGACC]” displayed a binding signal (PBM E-score (-0.5 to 0.5)) in data set [6] of 0.486. Consider “CGTGACGA (double strand) [8-mer CGTGACGA]”, for which, in [6], the binding signal (PBM E-score (-0.5 to 0.5)) worked out at 0.461.

With “CCGTGACG (double strand) [8-mer CCGTGACG]”, in [6], the binding signal (PBM E-score (-0.5 to 0.5)) was found to be 0.489. As to “CAAGAAAA (double strand) [8-mer CAAGAAAA]”, the binding signal (PBM E-score (-0.5 to 0.5)) in data set [1] is 0.469.

“AATATTAA (double strand) [8-mer AATATTAA]” came in with a binding signal (PBM E-score (-0.5 to 0.5)) in [3] of 0.455. On to “CACGCCCC (double strand) [8-mer CACGCCCC]”, for which, in data set [2], the binding signal (PBM E-score (-0.5 to 0.5)) was determined as 0.473.

The sequence “GGCGTGAC (double strand) [8-mer GGCGTGAC]” gave a binding signal (PBM E-score (-0.5 to 0.5)) in data set [6] of 0.468. Turning to “GGTGTTAA (double strand) [8-mer GGTGTTAA]”, the binding signal (PBM E-score (-0.5 to 0.5)) in data set [7] turned out to be 0.459; in [8] it was 0.488; in [9] it was 0.492. The sequence “AACGTCTT (double strand) [8-mer AACGTCTT]” registered a binding signal (PBM E-score (-0.5 to 0.5)) in data set [1] of 0.48. In data set [3], “AAAATAAT (double strand) [8-mer AAAATAAT]” yielded a binding signal (PBM E-score (-0.5 to 0.5)) of 0.451. On to “AAGACATT (double strand) [8-mer AAGACATT]”, for which, in data set [1], the binding signal (PBM E-score (-0.5 to 0.5)) was 0.458. As for “GGGGCGGA (double strand) [8-mer GGGGCGGA]”, the binding signal (PBM E-score (-0.5 to 0.5)) in data set [2] was 0.475. In turn, “AAGAAAGT (double strand) [8-mer AAGAAAGT]” displayed a binding signal (PBM E-score (-0.5 to 0.5)) in [1] of 0.456. Regarding “GTCACGCA (double strand) [8-mer GTCACGCA]”, the binding signal (PBM E-score (-0.5 to 0.5)) in data set [6] was found to be 0.481. Take “GTCACGGA (double strand) [8-mer GTCACGGA]”: the binding signal (PBM E-score (-0.5 to 0.5)) in data set [6] is 0.453. In turn, “ACCATGAC (double strand) [8-mer ACCATGAC]” had a binding signal (PBM E-score (-0.5 to 0.5)) in data set [6] of 0.454. In turn, “CGTCACGC (double strand) [8-mer CGTCACGC]” displayed a binding signal (PBM E-score (-0.5 to 0.5)) in data set [6] of 0.488. For the sequence “GGGGCGTA (double strand) [8-mer GGGGCGTA]”, the binding signal (PBM E-score (-0.5 to 0.5)) in data set [2] is 0.462. In the case of “AAATATAT (double strand) [8-mer AAATATAT]”, the binding signal (PBM E-score (-0.5 to 0.5)) in [3] amounted to 0.452; in data set [10] it was 0.48. Sequence “AATAATAA (double strand) [8-mer AATAATAA]” came in with a binding signal (PBM E-score (-0.5 to 0.5)) in data set [3] of 0.461.

Regarding “CGTCTTGA (double strand) [8-mer CGTCTTGA]”, the binding signal (PBM E-score (-0.5 to 0.5)) in data set [1] worked out at 0.454. Turning to “CGGTCACG (double strand) [8-mer CGGTCACG]”, in data set [6], the binding signal (PBM E-score (-0.5 to 0.5)) worked out at 0.473. The sequence “ACCGCCCC (double strand) [8-mer ACCGCCCC]” gave a binding signal (PBM E-score (-0.5 to 0.5)) in [2] of 0.476.

Turning to “AATTAATT (double strand) [8-mer AATTAATT]”, the binding signal (PBM E-score (-0.5 to 0.5)) in [3] stood at 0.454; in [11], 0.492; in data set [12], 0.489.
